US12467929

Legend:
[1] = molecular target: recombinant UBE3A protein (Homo sapiens (Human)) (UniProt Q05086); test: 2-step Simoa; capture GTX; UBE3A 125 ng/ml
[2] = molecular target: recombinant UBE3A protein (Homo sapiens (Human)) (UniProt Q05086); test: 3-step Simoa; capture GTX; UBE3A 500 ng/ml
[3] = molecular target: recombinant UBE3A protein (Homo sapiens (Human)) (UniProt Q05086); test: Simoa; capture GTX; SBG 150 pm; UBE3A 0.160 ng/ml
[4] = molecular target: recombinant UBE3A protein (Homo sapiens (Human)) (UniProt Q05086); test: Simoa; capture GTX; 3E5 0.4 ug/ml; UBE3A 20.0 ng/ml
[5] = molecular target: recombinant UBE3A protein (Homo sapiens (Human)) (UniProt Q05086); test: Simoa; capture GTX; 3E5 0.8 ug/ml; UBE3A 4.00 ng/ml
[6] = molecular target: recombinant UBE3A protein (Homo sapiens (Human)) (UniProt Q05086); test: Simoa; capture GTX; SBG 100 pm; UBE3A 0.00128 ng/ml
[7] = molecular target: recombinant UBE3A protein (Homo sapiens (Human)) (UniProt Q05086); test: Simoa; capture GTX; SBG 100 pm; UBE3A 0.00640 ng/ml
[8] = molecular target: recombinant UBE3A protein (Homo sapiens (Human)) (UniProt Q05086); test: Simoa; capture GTX; SBG 150 pm; UBE3A 0.00128 ng/ml
[9] = molecular target: recombinant UBE3A protein (Homo sapiens (Human)) (UniProt Q05086); test: Simoa; capture GTX; 3E5 0.4 ug/ml; UBE3A 0.800 ng/ml
[10] = molecular target: recombinant UBE3A protein (Homo sapiens (Human)) (UniProt Q05086); test: Simoa; capture GTX; 3E5 0.8 ug/ml; UBE3A 0.800 ng/ml
[11] = molecular target: recombinant UBE3A protein (Homo sapiens (Human)) (UniProt Q05086); test: Simoa head-to-head, Table 11; capture GTX; UBE3A 100 ng/ml
[12] = molecular target: recombinant UBE3A protein (Homo sapiens (Human)) (UniProt Q05086); test: Simoa head-to-head, Table 10; capture MS 2F6; UBE3A 0.16 ng/ml
[13] = molecular target: recombinant UBE3A protein (Homo sapiens (Human)) (UniProt Q05086); test: Simoa head-to-head, Table 11; capture MS 2F6; UBE3A 20.0 ng/ml
[14] = molecular target: recombinant UBE3A protein (Homo sapiens (Human)) (UniProt Q05086); test: Simoa head-to-head, Table 11; capture MS 2F6; UBE3A 4.00 ng/ml
[15] = molecular target: recombinant UBE3A protein (Homo sapiens (Human)) (UniProt Q05086); test: Simoa; capture GTX + helper beads; 3E5 0.2 ug/ml; UBE3A 0.800 ng/ml
[16] = molecular target: recombinant UBE3A protein (Homo sapiens (Human)) (UniProt Q05086); test: Simoa; capture GTX + helper beads; 3E5 0.4 ug/ml; UBE3A 0.160 ng/ml
[17] = molecular target: recombinant UBE3A protein (Homo sapiens (Human)) (UniProt Q05086); test: Simoa; capture GTX + helper beads; 3E5 0.4 ug/ml; UBE3A 0.0320 ng/ml
[18] = molecular target: recombinant UBE3A protein (Homo sapiens (Human)) (UniProt Q05086); test: Simoa; capture GTX + helper beads; 3E5 0.4 ug/ml; UBE3A 0.00640 ng/ml
[19] = molecular target: recombinant UBE3A protein (Homo sapiens (Human)) (UniProt Q05086); test: Simoa; capture GTX, no helper beads; 3E5 0.2 ug/ml; UBE3A 0.800 ng/ml
[20] = molecular target: recombinant UBE3A protein (Homo sapiens (Human)) (UniProt Q05086); test: Simoa; capture GTX, no helper beads; 3E5 0.2 ug/ml; UBE3A 0.00128 ng/ml

UniProt Q05086, sequence (Q05086 whole entry): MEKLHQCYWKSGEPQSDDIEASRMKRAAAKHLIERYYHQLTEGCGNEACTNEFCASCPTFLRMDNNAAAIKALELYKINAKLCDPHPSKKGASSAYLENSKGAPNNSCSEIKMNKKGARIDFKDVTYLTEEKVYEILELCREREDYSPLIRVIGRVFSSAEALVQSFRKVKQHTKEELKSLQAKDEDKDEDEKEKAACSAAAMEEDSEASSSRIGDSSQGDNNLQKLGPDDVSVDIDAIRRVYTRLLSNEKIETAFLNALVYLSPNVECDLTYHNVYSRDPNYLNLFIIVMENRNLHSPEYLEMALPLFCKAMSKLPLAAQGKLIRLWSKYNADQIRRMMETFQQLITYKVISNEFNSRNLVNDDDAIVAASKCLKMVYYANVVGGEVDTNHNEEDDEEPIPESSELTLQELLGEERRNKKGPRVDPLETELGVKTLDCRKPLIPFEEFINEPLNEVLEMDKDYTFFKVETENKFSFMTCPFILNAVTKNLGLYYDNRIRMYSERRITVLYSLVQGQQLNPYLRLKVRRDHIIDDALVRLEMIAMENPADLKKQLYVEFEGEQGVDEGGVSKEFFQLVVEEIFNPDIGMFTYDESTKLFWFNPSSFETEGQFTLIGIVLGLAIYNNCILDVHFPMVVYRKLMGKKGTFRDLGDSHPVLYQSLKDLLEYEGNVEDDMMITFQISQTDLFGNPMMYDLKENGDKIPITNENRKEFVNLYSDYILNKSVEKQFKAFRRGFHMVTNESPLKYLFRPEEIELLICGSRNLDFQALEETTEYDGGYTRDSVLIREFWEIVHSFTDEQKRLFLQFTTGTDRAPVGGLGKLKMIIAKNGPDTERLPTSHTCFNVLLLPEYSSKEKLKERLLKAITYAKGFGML

## NB500-240 (Novus) (antibody)
[1]
  AEB1: 0.263
  AEB2: 0.241
  Ave AEB: 0.252
  Signal to Background: 77.1
[2]
  AEB1: 0.229
  AEB2: 0.218
  Ave AEB: 0.224
  Signal to Background: 102

## anti-UBE3A antibody 3E5 (SAB1404508-100 ug, Millipore-Sigma)
[3]
  AEB1: 0.0773
  AEB2: 0.0769
  Average AEB: 0.0771
  Signal to Background: 5.82
[4]
  AEB1: 6.82
  AEB2: 7.9
  AEB3: 7.67
  Average AEB: 7.46
  Signal to Background: 119
[5]
  AEB1: 3.18
  AEB2: 3.38
  AEB3: 3.16
  Average AEB: 3.24
  Signal to Background: 26.4
[6]
  AEB1: 0.0082
  AEB2: 0.0092
  AEB3: 0.0096
  Average AEB: 0.009
  Signal to Background: 1.07
[7]
  AEB1: 0.0098
  AEB2: 0.0098
  AEB3: 0.0111
  Average AEB: 0.0103
  Signal to Background: 1.22
[8]
  AEB1: 0.013
  AEB2: 0.018
  AEB3: 0.0134
  Average AEB: 0.0148
  Signal to Background: 1.12
[9]
  AEB1: 0.509
  AEB2: 0.48
  AEB3: 0.478
  Average AEB: 0.489
  Signal to Background: 7.81
[10]
  AEB1: 0.589
  AEB2: 0.605
  AEB3: 0.615
  Average AEB: 0.603
  Signal to Background: 4.92
[11]
  AEB1: 3.35
  AEB2: 3.51
  Ave AEB: 3.43
  Signal to Background: 419
[12]
  AEB1: 0.0183
  AEB2: 0.0155
  Ave AEB: 0.0169
  Signal to Background: 1.25
[13]
  AEB1: 0.352
  AEB2: 0.348
  Ave AEB: 0.35
  Signal to Background: 92.5
[14]
  AEB1: 0.0868
  AEB2: 0.0803
  Ave AEB: 0.0836
  Signal to Background: 22.1
[15]
  AEB1: 0.252
  AEB2: 0.261
  Average AEB: 0.257
  Signal to Background: 26.5
[16]
  AEB1: 0.0913
  AEB2: 0.105
  Average AEB: 0.0983
  Signal to Background: 5.03
[17]
  AEB1: 0.037
  AEB2: 0.0369
  Average AEB: 0.037
  Signal to Background: 1.89
[18]
  AEB1: 0.0326
  AEB2: 0.0263
  Average AEB: 0.0294
  Signal to Background: 1.51
[19]
  AEB1: 0.25
  AEB2: 0.247
  Average AEB: 0.249
  Signal to Background: 25.7
[20]
  AEB1: 0.0099
  AEB2: 0.0139
  Average AEB: 0.0119
  Signal to Background: 1.23
